# PMC6615864, “Genetic interactions of G-quadruplexes in humans”
# T1: DDX42 (Homo sapiens, UniProt Q86XP3 1-938)
# T1 sequence: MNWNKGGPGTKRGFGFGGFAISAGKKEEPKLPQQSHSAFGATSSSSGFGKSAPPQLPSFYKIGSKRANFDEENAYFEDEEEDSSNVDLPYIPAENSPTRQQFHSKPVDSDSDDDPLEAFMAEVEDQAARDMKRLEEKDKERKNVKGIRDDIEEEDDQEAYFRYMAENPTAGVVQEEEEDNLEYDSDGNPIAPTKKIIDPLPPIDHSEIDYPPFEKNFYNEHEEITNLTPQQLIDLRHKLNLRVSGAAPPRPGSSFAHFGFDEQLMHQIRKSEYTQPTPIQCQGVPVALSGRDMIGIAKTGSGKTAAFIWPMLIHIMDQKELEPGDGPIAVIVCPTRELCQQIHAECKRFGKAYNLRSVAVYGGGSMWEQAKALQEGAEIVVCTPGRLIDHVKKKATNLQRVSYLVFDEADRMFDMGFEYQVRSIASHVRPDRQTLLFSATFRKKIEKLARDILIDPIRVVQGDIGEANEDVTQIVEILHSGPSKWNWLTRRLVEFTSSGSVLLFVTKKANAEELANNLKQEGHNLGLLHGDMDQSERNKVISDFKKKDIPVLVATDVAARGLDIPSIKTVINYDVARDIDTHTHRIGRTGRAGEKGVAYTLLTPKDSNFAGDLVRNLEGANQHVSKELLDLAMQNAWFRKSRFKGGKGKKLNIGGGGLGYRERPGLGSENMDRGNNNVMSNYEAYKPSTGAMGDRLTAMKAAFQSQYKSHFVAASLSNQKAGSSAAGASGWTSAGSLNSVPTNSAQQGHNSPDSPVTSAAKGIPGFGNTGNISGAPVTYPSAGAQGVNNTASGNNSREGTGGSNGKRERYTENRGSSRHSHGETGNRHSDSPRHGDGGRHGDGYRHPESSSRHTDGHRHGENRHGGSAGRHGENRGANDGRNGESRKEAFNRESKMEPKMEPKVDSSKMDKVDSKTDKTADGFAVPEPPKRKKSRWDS
# Key:
# DDX42 [1] = target: T1, DDX42; test: ELISA; not detectable up to 200 nM DDX42; ELISA: 50 mM K2HPO4 pH 7.4, 100 mM KCl (or 100 mM LiCl), 3% BSA block, 0.1% Tween-20 washes; blocking at room temperature, DDX42 1 h; 50 nM biotin-oligo coating; oligos annealed in 10 mM Tris-HCl pH 7.4, 100 mM KCl; conditions: protein: commercial, tags: N-terminal GST, label: 5' biotin
# DDX42 [2] = target: T1, DDX42; test: ELISA; 100 mM KCl; apparent Kd; ELISA: 50 mM K2HPO4 pH 7.4, 100 mM KCl (or 100 mM LiCl), 3% BSA block, 0.1% Tween-20 washes; blocking at room temperature, DDX42 1 h; 50 nM biotin-oligo coating; oligos annealed in 10 mM Tris-HCl pH 7.4, 100 mM KCl; conditions: protein: commercial; tags: N-terminal GST; label: 5' biotin; parallel G4 (CD verified)
# DDX42 [3] = target: T1, DDX42; test: ELISA; 100 mM KCl; apparent Kd, above the 200 nM top concentration; ELISA: 50 mM K2HPO4 pH 7.4, 100 mM KCl (or 100 mM LiCl), 3% BSA block, 0.1% Tween-20 washes; blocking at room temperature, DDX42 1 h; 50 nM biotin-oligo coating; oligos annealed in 10 mM Tris-HCl pH 7.4, 100 mM KCl; conditions: protein: commercial; tags: N-terminal GST; label: 5' biotin; parallel G4 (CD verified)
binder,measurement,setting,value
UGUAGAAAGAGCAGAUCUAGAUG (ssRNA) [NRAS mut (rG4 mut)],binding result,DDX42 [1]; no G4,no binding
UGUGGGAGGGGCGGGUCUGGGUGC (structured_RNA) [NRAS G4 (rG4)],Kd,DDX42 [2],71.1 ± 3.5 nM
ACAGGGCUCCGCGAUGGCGGAGCCCAA (structured_RNA) [Stem loop (RNA hairpin)],binding result,DDX42 [1]; hairpin,no binding
TGAGGGTGGGTAGGGTGGGTAA (structured_DNA) [Myc G4 (dG4)],Kd,DDX42 [3],233 ± 23.5 nM
